Substitutions are numbered along the chain they refer to. Names may count otherwise. “And” between values parts separate entries of the source, which are not always exact repeats. Equal entries are not always repeated.
T1: mouse FcγRII (mouse, UniProt P08101 30-210)
T1 construct: Extracellular domain with C-terminal His tag, made in FreeStyle 293 cells; also called mFcγRII; mFcgRII
T1 sequence: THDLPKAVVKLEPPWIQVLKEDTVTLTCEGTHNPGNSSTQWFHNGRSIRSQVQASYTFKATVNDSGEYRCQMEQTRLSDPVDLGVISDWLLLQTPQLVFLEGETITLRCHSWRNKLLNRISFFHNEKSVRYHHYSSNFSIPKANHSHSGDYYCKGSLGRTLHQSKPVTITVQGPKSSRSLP

T2: mouse FcγRIII (mouse, UniProt P08508 31-215)
T2 construct: Extracellular domain with C-terminal His tag, made in FreeStyle 293 cells; also called mFcγRIII; mFcgRIII
T2 chain: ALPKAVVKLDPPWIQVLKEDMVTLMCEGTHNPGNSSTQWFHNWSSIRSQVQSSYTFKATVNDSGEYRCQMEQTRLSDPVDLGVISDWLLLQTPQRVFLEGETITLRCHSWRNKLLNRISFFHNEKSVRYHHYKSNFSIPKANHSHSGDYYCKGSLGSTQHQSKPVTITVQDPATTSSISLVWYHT

B1: H237-MB687/MRAL-k0 (antibody, mouse IgG1, kappa)
heavy: QVQLQESGPGLVKPSETLSLTCAVSGHSISHDHAWSWVRQPPGEGLEWIGFISYSGITNYNPSLQGRVTISRDNSKNTLYLQMNSLRAEDTAVYYCARSLARTTAMDYWGEGTLVTVSSAKTTPPSVYPLAPGSAAQTNSMVTLGCLVKGYFPEPVTVTWNSGSLSSGVHTFPAVLQSDLYTLSSSVTVPSSTWPSETVTCNVAHPASSTKVDKKIVPRDCGCKPCICEPPEVELVFIFPPKPKDVLTITLTPKVTCVVVDISKDDPEVQFSWFVDDVEVHTAQTQPREEQFNSTFRSVSELPIMHQDWLNGKEFKCRVNSAAFPAPIEKTISKTKGRPKAPQVYTIPPPKEQMAKDKVSLTCMITDFFPEDITVEWQWNGQPAENYKNTQPIMDTDGSYFVYSKLNVQKSNWEAGNTFTCSVLHEGLHNHHTEKSLSHSPGK
light: not shown
notes: copies: 2 + 2
B2: H237-MB626/MRAL-k0 (antibody, mouse IgG1, kappa)
heavy: B1 heavy with P230T, P231Y
light: not shown
notes: copies: 2 + 2
B3: H237-MB647/MRAL-k0 (antibody)
heavy: B1 heavy with E229I, P231A, L235Y
light: not shown
notes: 'T2301' read as T230I; copies: 2 + 2
B4: H237-MB642/MRAL-k0 (antibody, mouse IgG1, kappa)
heavy: B1 heavy with P230D, P231Y, L235Y
light: not shown
notes: copies: 2 + 2
B5: H237-MB611/MRAL-k0 (antibody, mouse IgG1, kappa)
heavy: B1 heavy with E229T, P230V, V233E, E234D, L235E
light: not shown
notes: copies: 2 + 2
B6: H237-MB601/MRAL-k0 (antibody, mouse IgG1, kappa)
heavy: B1 heavy with P230V, V233E, E234S, L235S, F237D
light: not shown
notes: copies: 2 + 2
B7: H237-MB685/MRAL-k0 (antibody, mouse IgG1, kappa)
heavy: B1 heavy with E229T, P231A
light: not shown
notes: copies: 2 + 2
B8: H237-MB641/MRAL-k0 (antibody, mouse IgG1, kappa)
heavy: B1 heavy with P230A, P231Y, L235Y
light: not shown
notes: copies: 2 + 2
B9: H237-MB640/MRAL-k0 (antibody, mouse IgG1, kappa)
heavy: B1 heavy with E229Q, P231N, L235N
light: not shown
notes: copies: 2 + 2
B10: H237-MB638/MRAL-k0 (antibody)
heavy: B1 heavy with E229I, P231A, L235N
light: not shown
notes: as for B3
B11: H237-MB658/MRAL-k0 (antibody, mouse IgG1, kappa)
heavy: B1 heavy with E229Q, P231N, L235F
light: not shown
notes: copies: 2 + 2
B12: H237-MB643/MRAL-k0 (antibody, mouse IgG1, kappa)
heavy: B1 heavy with P230N, P231Y, L235Y
light: not shown
notes: copies: 2 + 2
B13: H237-MB599/MRAL-k0 (antibody, mouse IgG1, kappa)
heavy: B1 heavy with P230V, V233E, E234S, L235F
light: not shown
notes: copies: 2 + 2
B14: H237-MB688/MRAL-k0 (antibody, mouse IgG1, kappa)
heavy: B1 heavy with E229T, P230V, P231Y, L235N
light: not shown
notes: copies: 2 + 2
B15: H237-MB624/MRAL-k0 (antibody, mouse IgG1, kappa)
heavy: B1 heavy with P230D, P231Y
light: not shown
notes: copies: 2 + 2
B16: H237-MB691/MRAL-k0 (antibody, mouse IgG1, kappa)
heavy: B1 heavy with P230V, P231A, L235Y
light: not shown
notes: copies: 2 + 2
B17: H237-MB690/MRAL-k0 (antibody, mouse IgG1, kappa)
heavy: B1 heavy with E229T, P231A, L235Y
light: not shown
notes: copies: 2 + 2
B18: H237-MB692/MRAL-k0 (antibody, mouse IgG1, kappa)
heavy: B1 heavy with L235Y
light: not shown
notes: copies: 2 + 2
B19: H237-MB625/MRAL-k0 (antibody, mouse IgG1, kappa)
heavy: B1 heavy with P230N, P231Y
light: not shown
notes: copies: 2 + 2
B20: H237-MB618/MRAL-k0 (antibody, mouse IgG1, kappa)
heavy: B1 heavy with E229T, P230V, V233E, E234D, L235D
light: not shown
notes: copies: 2 + 2
B21: H237-MB657/MRAL-k0 (antibody, mouse IgG1, kappa)
heavy: B1 heavy with P231N, L235F
light: not shown
notes: copies: 2 + 2
B22: H237-MB617/MRAL-k0 (antibody, mouse IgG1, kappa)
heavy: B1 heavy with E229T, P230V, V233E, E234S, L235D, F237D
light: not shown
notes: copies: 2 + 2
B23: H237-MB623/MRAL-k0 (antibody, mouse IgG1, kappa)
heavy: B1 heavy with P230A, P231Y
light: not shown
notes: copies: 2 + 2
B24: H237-MB600/MRAL-k0 (antibody, mouse IgG1, kappa)
heavy: B1 heavy with P230V, V233E, E234S, L235W
light: not shown
notes: copies: 2 + 2

What was measured:
mouse FcγRII [1] = target: T1, mouse FcγRII; assay: SPR (Biacore), antibody captured on Protein L
Procedure: (§1) Each altered antibody was analyzed for its interaction with each Fcγ receptor prepared above using Biacore T100 (GE Healthcare Japan Corp.), Biacore T200 (GE Healthcare Japan Corp.), Biacore A100, or Biacore 4000. The running buffer used was HBS-EP+ (GE Healthcare Japan Corp.). The assay temperature was set to 25° C. The sensor chips used were chips prepared by immobilizing Protein L (ACTIGEN or BioVision) onto Series S Sensor Chip CM5 (GE Healthcare Japan Corp.) or Series S Sensor Chip CM4 (GE Healthcare Japan Corp.) by the amine coupling method.
(§2) In order to calculate the KD value of each altered antibody for FcγR, kinetic analysis was conducted according to the following method: first, the antibody of interest was captured onto any of these chips and allowed to interact with mFcγR diluted with a running buffer. For the obtained sensorgram, the assay results were globally fit into the 1:1 Langmuir binding model using Biacore Evaluation Software to calculate an association rate constant ka (L/mol/s) and a dissociation rate constant kd (1/s). From these values, the dissociation constant KD (mol/L) was calculated.

mouse FcγRIII [2] = target: T2, mouse FcγRIII; assay: SPR (Biacore), antibody captured on Protein L
Procedure: as §1, §2

mouse FcγRII [3] = target: T1, mouse FcγRII; assay: SPR (Biacore), KD of H237-mIgG1/MRAL-k0 (same run) / KD of variant
Procedure: as §1, §2

mouse FcγRIII [4] = target: T2, mouse FcγRIII; assay: as above
Procedure: as §1, §2

Binder | Kd (mouse FcγRII [1]) | Kd (mouse FcγRIII [2]) | relative mFcγRII-binding activity (mIgG1 = 1) (mouse FcγRII [3]) [fold] | relative mFcγRIII-binding activity (mIgG1 = 1) (mouse FcγRIII [4]) [fold]
B1 | 345 nM | 5320 nM | 0.94 | 0.1
B2 | 261 nM | 2370 nM | 0.89 | 0.14
B3 | 200 nM | 2800 nM | 1.16 | 0.12
B4 | 197 nM | 5110 nM | 1.65 | 0.1
B5 | 192 nM | 3420 nM | 1.11 | 0.09
B6 | 389 nM | 3230 nM | 0.55 | 0.1
B7 | 537 nM | 5490 nM | 0.61 | 0.09
B8 | 143 nM | 2100 nM | 1.62 | 0.15
B9 | 197 nM | 1550 nM | 1.17 | 0.21
B10 | 280 nM | 3380 nM | 0.83 | 0.1
B11 | 415 nM | 4880 nM | 0.56 | 0.07
B12 | 126 nM | 2000 nM | 1.83 | 0.16
B13 | 306 nM | 3020 nM | 0.7 | 0.11
B14 | 513 nM | 6300 nM | 0.63 | 0.08
B15 | 263 nM | 2870 nM | 0.88 | 0.11
B16 | 559 nM | 7180 nM | 0.58 | 0.07
B17 | 204 nM | 2710 nM | 1.6 | 0.19
B18 | 186 nM | 4440 nM | 1.75 | 0.12
B19 | 312 nM | 2310 nM | 0.74 | 0.14
B20 | 156 nM | 2730 nM | 1.63 | 0.13
B21 | 118 nM and 211 nM | 3480 nM and 5870 nM |  | 0.09
B22 | 255 nM | 2100 nM | 0.84 | 0.15
B23 | 395 nM | 3170 nM | 0.59 | 0.1
B24 | 171 nM | 1270 nM | 1.24 | 0.25
